These results are taken from US20090280138A1 (OXFORD BIOMEDICA UK, published 2009).

Experiment in all cases: iTopia peptide binding assay
Assay [1] deals with T1, MHC class I allele A*0201 (bound via biotin to streptavidin-coated plate).
T1 construct: iTopia MHC class I monomer on the plate; placeholder peptide and b2M removed, then reconstituted with test peptide and fresh b2M; also called A2; HLA A2
As for the experimental part:
(§1) The 9 mers were tested for Peptide Binding, Off Rate and Affinity using iTopia Epitope Discovery System in accordance with the manufacturer's instructions. Briefly, 96 well microtitre plates coated with MHC molecules representing different MHC alleles are used to identify candidate peptides. […] Determinations are performed in duplicate using an ELISA plate reader and included allele specific positive controls.
(§2) i) Peptide Binding—This assay measures the ability of individual peptides to bind to the MHC molecules under standardized optimal binding conditions. The assay is performed for all the test peptides across the selected MHC alleles. The test peptides identified as “binders” are characterized further in terms of affinity and dissociation experiments.

The target of assay [2] is T2, MHC class I allele B*0702 (bound via biotin to streptavidin-coated plate).
T2 construct: iTopia MHC class I monomer on the plate; placeholder peptide and b2M removed, then reconstituted with test peptide and fresh b2M; also called B7; HLA B7
The procedure: as §1, §2

Assay [3] addresses T3, MHC class I allele A*0301 (bound via biotin to streptavidin-coated plate).
T3 construct: iTopia MHC class I monomer on the plate; placeholder peptide and b2M removed, then reconstituted with test peptide and fresh b2M; also called A3; HLA A3
As for the experimental part:
as §1, §2

In assay [4] the target is T4, MHC class I allele A*0101 (bound via biotin to streptavidin-coated plate).
T4 construct: iTopia MHC class I monomer on the plate; placeholder peptide and b2M removed, then reconstituted with test peptide and fresh b2M; also called A1; HLA A1
The procedure:
as §1, §2

As to ILNHIVPPE (also called Peptide No 90) [5T4 9 mer peptide 90 ILNHIVPPE], the “% of positive control peptide binding” value in assay [1] turned out to be 63%; in assay [2], 7%; in assay [3], 4%; in assay [4], 5%.
With SGSNASVSA (also called Peptide No 82) [5T4 9 mer peptide 82 SGSNASVSA], the “% of positive control peptide binding” value in assay [1] stood at 15%; in assay [2], 11%; in assay [3] it was 3%; in assay [4] it was 5%.
The like results for SSSPTSSAS (also called Peptide No 16) [5T4 9 mer peptide 16 SSSPTSSAS] were, in that order, 7%, 8%, 2% and 4%.
The like results for VVAALLAGR (also called Peptide No 100) [5T4 9 mer peptide 100 VVAALLAGR] were, in that order, 11%, 7%, 49% and 9%.
As to SPTSSASSF (also called Peptide No 17) [5T4 9 mer peptide 17 SPTSSASSF], the “% of positive control peptide binding” value in assay [1] came to 4%; in assay [2], 62%; in assay [3], 0%; in assay [4] it was 2%.
The matching figures for PFAFSGSNA (also called Peptide No 80) [5T4 9 mer peptide 80 PFAFSGSNA]: 13%, 7%, 3% and 0%.
The matching figures for SSAPFLASA (also called Peptide No 22) [5T4 9 mer peptide 22 SSAPFLASA]: 85%, 7%, 1% and 6%.
The matching figures for VSAPSPLVE (also called Peptide No 85) [5T4 9 mer peptide 85 VSAPSPLVE]: 13%, 3%, 7% and 3%.
In the case of HNPLADLSP (also called Peptide No 76) [5T4 9 mer peptide 76 HNPLADLSP], the “% of positive control peptide binding” value stood at 7% in assay [1], 5% in assay [2], 3% in assay [3] and 5% in assay [4].
SLRQLDLSH (also called Peptide No 72) [5T4 9 mer peptide 72 SLRQLDLSH]: the “% of positive control peptide binding” value in assay [1] came to 6%; in assay [2], 13%; in assay [3], 11%; in assay [4], 0%.
Consider PLADLSPFA (also called Peptide No 77) [5T4 9 mer peptide 77 PLADLSPFA], for which the “% of positive control peptide binding” value in assay [1] came to 67%; in assay [2], 10%; in assay [3], 0%; in assay [4], 1%.
NHIVPPEDE (also called Peptide No 91) [5T4 9 mer peptide 91 NHIVPPEDE]: the “% of positive control peptide binding” value was determined as 11% in assay [1], 5% in assay [2], 3% in assay [3] and 6% in assay [4].
As to LDLSNNSLV (also called Peptide No 120) [5T4 9 mer peptide 120 LDLSNNSLV], the “% of positive control peptide binding” value in assay [1] came to 42%; in assay [2] it was 3%; in assay [3], 3%; in assay [4], 7%.
In the case of RRLELASNH [5T4 9 mer peptide 107 RRLELASNH], the “% of positive control peptide binding” value in assay [1] worked out at 5%; in assay [2] it was 3%; in assay [3], 3%; in assay [4], 0%.
Regarding IVPPEDERQ (also called Peptide No 92) [5T4 9 mer peptide 92 IVPPEDERQ], the “% of positive control peptide binding” value is 12% in assay [1], 3% in assay [2], 3% in assay [3] and 6% in assay [4].
Take EDERQNRSF (also called Peptide No 94) [5T4 9 mer peptide 94 EDERQNRSF]: the “% of positive control peptide binding” value in assay [1] was found to be 2%; in assay [2] it was 4%; in assay [3], 4%; in assay [4] it was 0%.
Regarding PPEDERQNR (also called Peptide No 93) [5T4 9 mer peptide 93 PPEDERQNR], the “% of positive control peptide binding” value in assay [1] was 2%; in assay [2], 0%; in assay [3] it was 0%; in assay [4], 0%.
For the molecule AALLAGRAL [5T4 9 mer peptide 101 AALLAGRAL], the “% of positive control peptide binding” value was determined as 38% in assay [1], 59% in assay [2], 0% in assay [3] and 1% in assay [4].
As for GMVVAALLA (also called Peptide No 99) [5T4 9 mer peptide 99 GMVVAALLA], the “% of positive control peptide binding” value in assay [1] was 71%; in assay [2], 0%; in assay [3] it was 0%; in assay [4] it was 0%.
ERQNRSFEG (also called Peptide No 95) [5T4 9 mer peptide 95 ERQNRSFEG]: the “% of positive control peptide binding” value in assay [1] was 1%; in assay [2], 1%; in assay [3], 1%; in assay [4] it was 0%.
Turning to LASNHFLYL [5T4 9 mer peptide 109 LASNHFLYL], the “% of positive control peptide binding” value was determined as 78% in assay [1], 49% in assay [2], 18% in assay [3] and 26% in assay [4].
Take VSSSSPTSS (also called Peptide No 15) [5T4 9 mer peptide 15 VSSSSPTSS]: the “% of positive control peptide binding” value is 9% in assay [1], 2% in assay [2], 2% in assay [3] and 3% in assay [4].
Consider RQLDLSHNP (also called Peptide No 73) [5T4 9 mer peptide 73 RQLDLSHNP], for which the “% of positive control peptide binding” value amounted to 8% in assay [1], 4% in assay [2], 2% in assay [3] and 2% in assay [4].
As for AFSGSNASV (also called Peptide No 81) [5T4 9 mer peptide 81 AFSGSNASV], the “% of positive control peptide binding” value was determined as 55% in assay [1], 14% in assay [2], 2% in assay [3] and 2% in assay [4].
With LPRDVLAQL [5T4 9 mer peptide 113 LPRDVLAQL], the “% of positive control peptide binding” value in assay [1] worked out at 10%; in assay [2] it was 79%; in assay [3], 3%; in assay [4], 3%.
Consider RDVLAQLPS [5T4 9 mer peptide 114 RDVLAQLPS], for which the “% of positive control peptide binding” value in assay [1] was determined as 15%; in assay [2] it was 4%; in assay [3], 3%; in assay [4], 1%.
The like results for AGRALQGLR (also called Peptide No 103) [5T4 9 mer peptide 103 AGRALQGLR] were, in that order, 2%, 1%, 2% and 0%.
